# B1: 84-mer ssDNA (ssDNA)
# DNA: GGTAGCGGTTGGGTGAGTGGTGGGGAGGGTCGGGAGGTGGCGTAGAAACATGATAGGAATGTGAATGAATGAAGTACAAGTAAA
# Tests used:
# hsRAD51-WT = hsRAD51-WT (Homo sapiens, UniProt Q06609 1-339); assay: fluorescence polarization; 1 mM ATP, 1 mM MgCl2, 50 uM CaCl2; apparent Kd; 25 mM Tris-HCl pH 7.8, 1 mM MgCl2, 1 mM ATP, 1 mM DTT, 50 mM NaCl (printed NaCl2), 50 uM CaCl2, 100 ug/ml BSA, 37 C, 30 min; 2.4 nM oligo, RAD51 10-1000 nM; conditions: protein: recombinant; tags: C-terminal His6; label: 5' Alexa Fluor 488 (Methods; legend says fluorescein); single strand
# hsRAD51-WT, sequence (Q06609 whole entry): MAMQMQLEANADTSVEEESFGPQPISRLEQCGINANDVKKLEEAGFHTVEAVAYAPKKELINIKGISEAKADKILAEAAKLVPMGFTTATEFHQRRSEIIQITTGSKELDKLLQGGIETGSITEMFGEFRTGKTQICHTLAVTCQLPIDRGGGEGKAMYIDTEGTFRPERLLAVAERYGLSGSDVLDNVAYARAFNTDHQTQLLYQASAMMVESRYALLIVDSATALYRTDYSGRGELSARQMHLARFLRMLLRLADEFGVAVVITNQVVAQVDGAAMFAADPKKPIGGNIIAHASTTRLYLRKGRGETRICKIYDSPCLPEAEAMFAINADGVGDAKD
# hsRAD51-II3A = hsRAD51-II3A (Homo sapiens, UniProt Q06609 1-339, R130A;R303A;K313A); assay: fluorescence polarization; 1 mM ATP, 1 mM MgCl2, 50 uM CaCl2; apparent Kd; modest binding defect; 25 mM Tris-HCl pH 7.8, 1 mM MgCl2, 1 mM ATP, 1 mM DTT, 50 mM NaCl (printed NaCl2), 50 uM CaCl2, 100 ug/ml BSA, 37 C, 30 min; 2.4 nM oligo, RAD51 10-1000 nM; conditions: protein: recombinant; tags: C-terminal His6; label: 5' Alexa Fluor 488 (Methods; legend says fluorescein); single strand
# hsRAD51-II3A, sequence (Q06609 whole entry R130A/R303A/K313A): as the sequence (Q06609 whole entry) above, with R130A, R303A, K313A counted along it
binder,measurement,setting,value
B1,Kd,hsRAD51-WT,57 ± 1 nM
same,Kd,hsRAD51-II3A,132 ± 5 nM
